{"source": "paper PMC12148588", "about": "(eBioMedicine, 2025)", "binders": {"B1": {"name": "MB043_CL39 (antibody, V domains shown)", "VH": "EVQLVETGGGLIHPGGSLRLSCAASEFIVSYNYMSWVRQAPGKGLEWVSVIYSGGSTFYADAVKGRFTISRDSSKNTLDLLMNSLRVEDTAVYYCARVLPSNTDYFDYWGQGILVTVSS", "VL": "QSVLTQPPSVSGATGQRVTISCTGSNSNIGAGSDVHWYQQLPGAAPKLLIYVNNNRPSGVPDRFSGSKSGTSASLAITGLQAEDEADYYCQSYDSSLSGYVFGTGTKVTVL"}}, "target": "T1, SARS-CoV-2 RBD of the Wuhan strain (Acro Biosystems SPD-C82E9-25) (SARS-CoV-2, Wuhan strain, UniProt P0DTC2)", "T1 construct": "source: bought: Acro Biosystems", "test": "SPR; Biacore 8K+, […]; 10 mM HEPES pH 7.4, 150 mM NaCl, 3 mM EDTA, 0.05% Tween 20; […]", "conditions": "both partners purified"}
{"binder": "B1", "values": [{"measurement": "fold higher affinity than MB027_D06L", "value": "> 200", "unit": "fold"}]}
